Test results taken from PMC5679609 (PLoS ONE, 2017).

Biological target: T1, Tiam1 (human (endogenous in MCF-7), UniProt Q13009 1-1591)
T1 construct: also called Rac1-GEF; source: endogenous, MCF-7 lysate
Assay: co-IP; anti-Tiam1 antibody, lysates of nt MCF-7 and of the lines that stably express the SDC4 constructs; Mg2+-lysis buffer (25 mM HEPES pH 7.5, 150 mM NaCl, 1% Igepal CA-630, 5 mM MgCl2, 1 mM EDTA, 2% glycerol); blot with anti-GFP-HRP or anti-Rac1
Conditions: partners not purified

T1 sequence (Q13009 whole entry): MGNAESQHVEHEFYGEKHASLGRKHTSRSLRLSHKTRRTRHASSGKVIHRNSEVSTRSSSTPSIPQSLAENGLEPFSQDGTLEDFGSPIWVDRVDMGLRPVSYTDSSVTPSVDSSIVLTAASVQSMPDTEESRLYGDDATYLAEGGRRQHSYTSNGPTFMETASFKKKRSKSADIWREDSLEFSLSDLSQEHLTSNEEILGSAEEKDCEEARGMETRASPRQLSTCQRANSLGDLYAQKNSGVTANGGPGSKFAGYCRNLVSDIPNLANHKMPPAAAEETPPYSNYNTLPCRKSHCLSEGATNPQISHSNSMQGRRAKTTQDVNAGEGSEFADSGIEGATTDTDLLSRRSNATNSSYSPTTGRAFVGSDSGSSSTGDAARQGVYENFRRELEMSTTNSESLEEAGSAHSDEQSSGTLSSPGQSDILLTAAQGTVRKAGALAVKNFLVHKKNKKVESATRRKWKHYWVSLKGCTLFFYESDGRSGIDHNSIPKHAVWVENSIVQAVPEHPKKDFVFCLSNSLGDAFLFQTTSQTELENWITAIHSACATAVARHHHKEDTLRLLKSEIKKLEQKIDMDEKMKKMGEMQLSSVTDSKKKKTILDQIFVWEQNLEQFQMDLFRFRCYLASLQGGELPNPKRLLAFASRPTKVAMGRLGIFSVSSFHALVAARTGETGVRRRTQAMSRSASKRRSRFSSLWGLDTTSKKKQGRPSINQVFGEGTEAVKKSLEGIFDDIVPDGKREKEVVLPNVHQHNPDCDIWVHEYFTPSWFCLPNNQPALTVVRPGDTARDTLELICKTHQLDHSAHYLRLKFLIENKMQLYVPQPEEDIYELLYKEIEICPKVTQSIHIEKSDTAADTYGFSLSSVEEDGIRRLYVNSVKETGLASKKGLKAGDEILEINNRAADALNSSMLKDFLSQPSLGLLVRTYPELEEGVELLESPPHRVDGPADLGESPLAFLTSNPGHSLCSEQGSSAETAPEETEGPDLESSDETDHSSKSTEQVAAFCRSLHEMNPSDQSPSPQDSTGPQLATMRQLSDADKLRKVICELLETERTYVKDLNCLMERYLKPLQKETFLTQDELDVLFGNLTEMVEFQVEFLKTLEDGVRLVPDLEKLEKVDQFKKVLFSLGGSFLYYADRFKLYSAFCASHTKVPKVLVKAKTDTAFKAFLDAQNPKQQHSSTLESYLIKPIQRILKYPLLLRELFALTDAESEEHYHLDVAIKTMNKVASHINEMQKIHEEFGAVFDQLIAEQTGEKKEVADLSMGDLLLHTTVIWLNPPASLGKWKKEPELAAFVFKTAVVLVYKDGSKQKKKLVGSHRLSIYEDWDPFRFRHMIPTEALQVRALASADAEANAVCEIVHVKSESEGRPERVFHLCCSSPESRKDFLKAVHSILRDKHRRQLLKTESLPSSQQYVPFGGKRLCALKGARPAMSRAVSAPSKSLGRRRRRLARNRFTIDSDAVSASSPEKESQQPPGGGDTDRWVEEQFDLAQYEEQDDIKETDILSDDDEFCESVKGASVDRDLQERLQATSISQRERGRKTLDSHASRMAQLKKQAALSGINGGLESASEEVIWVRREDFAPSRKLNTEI

B1: Ser179Glu SDC4 (phosphomimetic), with GFP in the extracellular domain (natural protein, human, UniProt P31431 19-198, looked up)
chain: ESIRETEVIDPQDLLEGRYFSGALPDDEDVVGPGQESDDFELSGSGDLDDLEDSMIGPEVVHPLVPLDNHIPERAGSGSQVPTEPKKLEENEVIPKRISPVEESEDVSNKVSMSSTVQGSNIFERTEVLAALIVGGIVGILFAVFLILLLMYRMKKKDEGEYDLGKKPIYKKAPTNEFYA
notes: syndecan-4 (SDC4), human, GenBank CAG46871.1; GFP inserted into the extracellular domain at position 131; also called phosphomimetic SDC4; source: MCF-7, stably transfected, in lysate; not shown: GFP, internal (at position 131), kept
  fold binding against the non-phosphorylated SDC4: ~10 fold
